Data set [1] is described as follows: Coupled 6-O-sulfatase/β-glucosidase fluorimetric plate assay (reaction conditions, steady-state kinetics). It is filed as biochemical. An excerpt: (§1) Indirect measurement of enzyme activity was also made using a fluorimetrically-based plate assay in which the prerequisite desulfation of the appropriate glucopyranoside 1→4 methlybelliferone substrate by either the 6-O-sulfatase or N-sulfamidase was coupled to the glucosidase-mediated hydrolysis of the stereo-specific 1→4 glycosidic linkage between the pyranose ring and the adjoining fluorophore. Release of the free fluorophore (4-MU) was monitored spectroscopically as described above for the arylsulfatase assay using 4-MU sulfate. The two sulfatase assays differed in the choice of substrate in accordance to their specificity as well as the glucosidase added during the second, […] step. For the 6-O-sulfatase, the hydrolysis of the substrate 4-MU-β-D-GlcNAc,6S at the 6-OH position was coupled to β-glucosidase purified from sweet almonds (MP Biomedicals, Solon, Ohio, Catalog No. 195197). Likewise, N-sulfamidase hydrolysis of 4-MU-α-D-GlcNS at the 2-amino position was coupled to α-glucosidase (MP Biomedicals, Catalog No. 153487). […] The presumption of the first (sulfatase) activity being the rate-limiting step was established experimentally. Reaction conditions were optimized to satisfy three related criteria: 1) linear readout of fluorescent signal which is directly proportional to sulfatase activity; 2) quantitative release of 4-MU by glucosidase activity under every biochemical condition examined and; 3) negligible fluorescent quenching of the free chromophore.
For the 6-O-sulfatase/β-glucosidase assay, the standard reaction conditions included 2 μM recombinant enzyme, 50 mM sodium acetate buffer, pH 5.5, and 5 mM CaCl2 in a 20 μl reaction volume. 4-MU-GlcNAc,6S substrate concentration was varied from 0.1-2 mM. 2 μL of enzyme were added to each well of a microtiter plate (prechilled on ice), plate gently vortexed, and contents of each well spun down for 1 minute at 500×g, 4° C. […] Reactions were transferred to a black 96 well, flat-bottom FIA-plate and fluorescence measured as described above for the detection of free 4-MU. […]

Substrate in data set [2]: CC(=O)N[C@H]1[C@H](Oc2ccc3c(C)cc(=O)oc3c2)O[C@H](COS(=O)(=O)O)[C@@H](O)[C@@H]1O
The experiment in a line: Steady-state kinetics, coupled 6-O-sulfatase/β-glucosidase fluorimetric assay with 4-MU-GlcNAc,6S. It is filed as biochemical, Flavobacterium heparinum (Pedobacter heparinus).
Source text: Recombinant protein expression in the E. coli strain BL21(DE3) and one-step affinity purification by nickel chelation chromatography were as described for 2-O-sulfatase (Myette et al., 2003 J Biol Chem 278, 12157-12166). The prediction of NH2-terminal signal sequences and putative cleavage sites for the two respective proteins was made by the Von Heijne computational method (Nielsen et al., 1997 Protein Eng 10, 1-6.). Engineering and expression of these truncated proteins (minus signal sequences) were as described above for the full-length genes with the exception of substituting the 5′ primers which were used in the original PCR amplification step. These internal primers included 5′ TCTAGACATATGTCTTGCCAGCAGCCTAAAC 3′ (for ORF B; SEQ ID NO: 15) and 5′ TCTAGACATATGTCCTGCACTTCGCCGGAA 3′ (for ORF C; SEQ ID NO: 16), with the Nde 1 site underlined. As such, the ORF B gene sequence begins at Met 18 (FIG. 1). Likewise, the ORF C gene sequence begins at Ser 21 (FIG. 2). Removal of the 6×His tag was achieved by site-specific protease cleavage using the thrombin cleavage capture kit (Novagen, San Diego, Calif.). Proteolysis conditions were generally as described for other recombinantly expressed flavobacterial heparin degrading enzymes. Following concentrating the enzymes by ultrafiltration, cleaved proteins were dialyzed overnight against 4 liters of 50 mM Tris, pH 7.5 and 0.1 M NaCl, 4° C., using a 3 mL slide-a-lyzer cassette with a 10,000 molecular weight cutoff (MWCO) (Pierce Chemical, Rockland, Ill.).
Coupled Enzyme Assay for the Determination of Biochemical Reaction Conditions and Steady-State Kinetics
as §1
For the 6-O-sulfatase/β-glucosidase assay, the standard reaction conditions included 2 μM recombinant enzyme, 50 mM sodium acetate buffer, pH 5.5, and 5 mM CaCl2 in a 20 μl reaction volume. 4-MU-GlcNAc,6S substrate concentration was varied from 0.1-2 mM. 2 μL of enzyme were added to each well of a microtiter plate (prechilled on ice), plate gently vortexed, and contents of each well spun down for 1 minute at 500×g, 4° C. The assay was initiated by transferring the 96 well plate to a heating block prequilibrated at 30° C. Sulfatase incubation (first enzyme) was carried out at 30° C. for 20 minutes, after which enzyme activity was inactivated by heat denaturation (95° C., 10 minutes). In the second enzyme (glucosidase) step, the microtiter plate was once again chilled on ice. […]

The mark [3] stands for this setting: other: Addition: 0.5 mM Ca^+2, pH 5.5, 30° C.
Setting [4] is: other: Addition: 5 mM Ca^+2, pH 5.5, 30° C.
The mark [5] stands for this setting: other: Addition: none, pH 5.5, 30° C.

B1: Flavobacterium heparinum 6-O-sulfatase (ORF B), recombinant, NH2-terminal truncation lacking signal sequence, SEQ ID NO: 2 (Pedobacter heparinus DSM 2366) (protein)
chain: TLMSCQQPKPAESAKRPNIVFIMTDDHTIQAISAYGSKLVKTPNLDRIANEGMLFNNCFVTNAVCGPSRATILTGKYSHLNGLTDNSKVFDSTQVIYPQLLKKAGYQTAMIGKWHLGSTPMGFDYYSILPNQGQYYQPEFIENGHLVKEKGYVTDLITDKAIGFLEKRDHDKPFLMIYQHKAPHRNWLPAPRHLGMFDDTVFPEPANLLDDFKGRGRAAKEQLMNISTDMWPAWDLKMLSTAQLDSMAKLPVSPKFKDAKGDDYQQANDPSLDKARFFEVYNRMTDAEKVQWRKVYDKRVAEFKRLNPKGADLVRWKYQQYMRDYLACVVSVDENVGRLMDYLKKIGELDNTIIVYTSDQGFYLGEHGYFDKRFMYDESFRTPLMVRYPPSVKAGSVSNAFAMNLDFAPTLLDYAGVKIPADMQGLSLRPVLDNAGKSPENWRKAVYYHYYEFPSWHMVKRHYGIRTERYKLIHFYNDIDEWELYDMQKDPHEMQNLYNDKAYEPIIKDLKVQMKKLQVQYKDTNPTEAL
notes: E. coli BL21(DE3), N-terminal 6xHis removed by thrombin
A word on the Km: it is the concentration of substrate that gives half-maximal velocity. As usually defined, the kcat is the number of substrate molecules converted per active site and unit of time at saturation. Take B1: the “effect of Mg^+2 or Mn^+2 on activity” value in data set [1] (1 mM or 5 mM divalent metal) is listed as “only negligible effects”. For the same molecule, in data set [1] (1 M NaCl), the “activity remaining relative to the zero NaCl control” value was “less than 20%”. The “activation by the presence of calcium” value in data set [1] (calcium added) is recorded as 2-3 fold. Also, the Km in data set [2] (setting [3]) was determined as 217 µM; in data set [2] (setting [4]), 327 µM; in data set [2] (setting [5]) it was 146 µM. The figures for the kcat in data set [2] (setting [3]), in data set [2] (setting [4]) and in data set [2] (setting [5]) were 0.055 s⁻¹, 0.113 s⁻¹ and 0.0417 s⁻¹, respectively.
